Measured values from paper PMC3510516.

Columns and labels:
Test in all cases: fluorescence anisotropy
[1] = tested on: GyrA CTD (Bacillus subtilis); settings: CTD: 50 mM Tris-HCl, 40 mM KCl (Results say NaCl), 10 mM MgCl2, 25 C (pH not stated), 100 nM DNA; gyrase: 50 mM Tris-HCl pH 7.5, 100 mM KCl, 10 mM MgCl2, 37 C …
[2] = tested on: GyrA CTD lacking GyrA-box (Bacillus subtilis); settings: CTD: 50 mM Tris-HCl, 40 mM KCl (Results say NaCl), 10 mM MgCl2, 25 C (pH not stated), 100 nM DNA; gyrase: 50 mM Tris-HCl pH 7.5, 100 mM KCl, 10 mM MgCl2, 37 C …
[3] = tested on: GyrA lacking GyrA-box (GyrA_dA);GyrB (Bacillus subtilis;Bacillus subtilis); settings: 4 uM GyrB, 10 mM Mg2+, 37 C; CTD: 50 mM Tris-HCl, 40 mM KCl (Results say NaCl), 10 mM MgCl2, 25 C (pH not stated), 100 nM DNA; gyrase: 50 mM Tris-HCl pH 7.5, 100 mM KCl, 10 mM MgCl2, 37 C …
[4] = tested on: GyrA;GyrB (Bacillus subtilis;Bacillus subtilis); settings: 4 uM GyrB, 10 mM Mg2+, 37 C; CTD: 50 mM Tris-HCl, 40 mM KCl (Results say NaCl), 10 mM MgCl2, 25 C (pH not stated), 100 nM DNA; gyrase: 50 mM Tris-HCl pH 7.5, 100 mM KCl, 10 mM MgCl2, 37 C …

| Substance | Kd [1] [µM] | Kd [2] [µM] | Kd [3] [µM] | Kd [4] [µM] |
| --- | --- | --- | --- | --- |
| 40-bp DNA wrapping substrate | 13.2 | 13.1 | – | – |
| 60-bp gate-DNA | – | – | 0.05 | 0.063 |
